Target: the molecule itself
Assay: negative-stain electron microscopy

B1: Light-Dependent Protochlorophyllide Oxidoreductase, PORB isoform of A. thaliana, wild type (enzyme)
chain: QTAATSSPTVTKSVDGKKTLRKGNVVVTGASSGLGLATAKALAETGKWNVIMACRDFLKAERAAKSVGMPKDSYTVMHLDLASLDSVRQFVDNFRRTETPLDVLVCNAAVYFPTAKEPTYSAEGFELSVATNHLGHFLLARLLLDDLKKSDYPSKRLIIVGSITGNTNTLAGNVPPKANLGDLRGLAGGLNGLNSSAMIDGGDFDGAKAYKDSKVCNMLTMQEFHRRFHEETGVTFASLYPGCIASTGLFREHIPLFRALFPPFQKYITKGYVSETESGKRLAQVVSDPSLTKSGVYWSWNNASASFENQLSEEASDVEKARKVWEISEKLVGLA
  binding result: binds

B2: Light-Dependent Protochlorophyllide Oxidoreductase (AtPORB) Y177F_H319A double mutant (enzyme, A. thaliana)
chain: QTAATSSPTVTKSVDGKKTLRKGNVVVTGASSGLGLATAKALAETGKWNVIMACRDFLKAERAAKSVGMPKDSYTVMHLDLASLDSVRQFVDNFRRTETPLDVLVCNAAVFFPTAKEPTYSAEGFELSVATNHLGHFLLARLLLDDLKKSDYPSKRLIIVGSITGNTNTLAGNVPPKANLGDLRGLAGGLNGLNSSAMIDGGDFDGAKAYKDSKVCNMLTMQEFHRRFHEETGVTFASLYPGCIASTGLFREAIPLFRALFPPFQKYITKGYVSETESGKRLAQVVSDPSLTKSGVYWSWNNASASFENQLSEEASDVEKARKVWEISEKLVGLA
  binding result: binds
